B1: Slit2-C: ~50 kDa C-terminal cleavage fragment of Slit2 beginning at TSP (SEQ ID NO: 22); adenovirally expressed or purified FLAG-tagged protein (protein, listed as Homo sapiens)
chain: TSPCDNFDCQNGAQCIIRINEPICQCLPGYLGEKCEKLVSVNFVNKESYLQIPSAKVRPQTNITLQIATDEDSGILLYKGDKDHIAVELYRGRVRASYDTGSHPASAIYSVETINDGNFHIVELLTLDSSLSLSVDGGSPKVITNLSKQSTLNFDSPLYVGGMPGKNNVASLRQAPGQNGTSFHGCIRNLYINSELQDFRKMPMQTGILPGCEPCHKKVCAHGMCQPSSQSGFTCECEEGWMGPLCDQRTNDPCLGNKCVHGTCLPINAFSYSCKCLEGHGGVLCDEEEDLFNPCQMIKCKHGKCRLSGVGQPYCECNSGFTGDSCDREISCRGERIRDYYQKQQGYAACQTTKKVSRLECRGGCAGGQCCGPLRSKRRKYSFECTDGSSFVDEVEKVVKCGCARCAS
modifications: FLAG tag
notes: adenovirally expressed or purified FLAG-tagged protein
B2: Slit2: Slit family secreted extracellular matrix protein, full length ~180 kDa; used as commercial recombinant protein or adenovirally expressed (protein)
chain: QACPAQCSCSGSTVDCHGLALRSVPRNIPRNTERLDLNGNNITRITKIDFAGLRHLRVLQLMENRISTIERGAFQDLKELERLRLNRNNLQLFPELLFLGTAKLYRLDLSENQIQAIPRKAFRGAVDIKNLQLDYNQISCIEDGAFRALRDLEVLTLNNNNITRLSVASFNHMPKLRTFRLHSNNLYCDCHLAWLSDWLRQRPRVGLYTQCMGPSHLRGHNVAEVQKREFVCSGHQSFMAPSCSVLHCPAACTCSNNIVDCRGKGLTEIPTNLPETITEIRLEQNSIRVIPPGAFSPYKKLRRLDLSNNQISELAPDAFQGLRSLNSLVLYGNKITELPKSLFEGLFSLQLLLLNANKINCLRVDAFQDLHNLNLLSLYDNKLQTVAKGTFSALRAIQTMHLAQNPFICDCHLKWLADYLHTNPIETSGARCTSPRRLANKRIGQIKSKKFRCSGTEDYRSKLSGDCFADLACPEKCRCEGTTVDCSNQRLNKIPDHIPQYTAELRLNNNEFTVLEATGIFKKLPQLRKINFSNNKITDIEEGAFEGASGVNEILLTSNRLENVQHKMFKGLESLKTLMLRSNRISCVGNDSFIGLGSVRLLSLYDNQITTVAPGAFDSLHSLSTLNLLANPFNCNCHLAWLGEWLRRKRIVTGNPRCQKPYFLKEIPIQDVAIQDFTCDDGNDDNSCSPLSRCPSECTCLDTVVRCSNKGLKVLPKGIPKDVTELYLDGNQFTLVPKELSNYKHLTLIDLSNNRISTLSNQSFSNMTQLLTLILSYNRLRCIPPRTFDGLKSLRLLSLHGNDISVVPEGAFNDLSALSHLAIGANPLYCDCNMQWLSDWVKSEYKEPGIARCAGPGEMADKLLLTTPSKKFTCQGPVDITIQAKCNPCLSNPCKNDGTCNNDPVDFYRCTCPYGFKGQDCDVPIHACISNPCKHGGTCHLKEGENAGFWCTCADGFEGENCEVNIDDCEDNDCENNSTCVDGINNYTCLCPPEYTGELCEEKLDFCAQDLNPCQHDSKCILTPKGFKCDCTPGYIGEHCDIDFDDCQDNKCKNGAHCTDAVNGYTCVCPEGYSGLFCEFSPPMVLPRTSPCDNFDCQNGAQCIIRINEPICQCLPGYLGEKCEKLVSVNFVNKESYLQIPSAKVRPQTNITLQIATDEDSGILLYKGDKDHIAVELYRGRVRASYDTGSHPASAIYSVETINDGNFHIVELLTLDSSLSLSVDGGSPKVITNLSKQSTLNFDSPLYVGGMPGKNNVASLRQAPGQNGTSFHGCIRNLYINSELQDFRKMPMQTGILPGCEPCHKKVCAHGMCQPSSQSGFTCECEEGWMGPLCDQRTNDPCLGNKCVHGTCLPINAFSYSCKCLEGHGGVLCDEEEDLFNPCQMIKCKHGKCRLSGVGQPYCECNSGFTGDSCDREISCRGERIRDYYQKQQGYAACQTTKKVSRLECRGGCAGGQCCGPLRSKRRKYSFECTDGSSFVDEVEKVVKCGCARCAS

Key:
[1] = system: primary inguinal adipocytes; assay: Thermogenic gene expression (qRT-PCR) in primary adipocytes treated with recombinant protein; assay type: cell-based, Mus musculus
Experimental: Inguinal and brown stromal-vascular fractions were obtained from 6 weeks old male or newborn mice (postnatal days 5-10) for white and brown fat cultures, respectively. Inguinal fat tissue was dissected and washed with PBS, minced and digested for 45 min at 37° C. in PBS containing 10 mM CaCl2), 2.4 U/ml dispase II (Roche) and 10 mg/ml collagenase D (Roche). Brown fat tissue was dissected, washed with PBS, minced and digested for 45 min at 37° C. in PBS containing 1.3 mM CaCl2, 123 mM NaCl, 5 mM KCl, 5.0 mM glucose, 100 mM HEPES, 4% BSA and 1.5 mg/ml collagenase B (Roche). Digested tissue was filtered through a 100-μm cell strainer and centrifuged at 600 g for 10 min. Pelleted inguinal stromal-vascular cells were grown to confluence and induced to differentiate by an adipogenic cocktail containing 0.02 μM insulin, 1 μM rosiglitazone, 5 μM dexamethasone, 0.5 μM isobuthylmethylxanthine. For differentiation of brown fat cells, 1 nM T3 and 125 μM indomethacin were also added to the adipogenic cocktail. Two days after induction, cells were maintained in adipocyte culture medium containing 0.02 μM insulin and 1 μM rosiglitazone. Where indicated, cells were treated with forskolin (10 μM), norepinephrine (100 nM) for 4 h or with recombinant proteins (1 μg/ml, R&D systems) for 24 h or for the indicated times. For adenoviral overexpression of Slit2-FL, Slit2-N, Slit2-C, LacZ or Cre, virus was added at day 2 of differentiation at a titer of 10^8 particles/well and cells were analyzed at day 6-7. […]
(§1) RNA was extracted from cultured cells or frozen tissue samples using TRIzol®, purified with QIAGEN RNeasy® minicolumns. Normalized RNA was reversed transcribed using a high-capacity cDNA reverse transcription lot (Applied Biosystems) and cDNA was analyzed by qRT-CPR. Relative mRNA levels were calculated using the comparative CT method and normalized to cyclophilin […]. […]

primary inguinal cells = assay: Thermogenic gene expression in primary inguinal cells with adenoviral overexpression; assay type: cell-based, Mus musculus
Experimental: Inguinal and brown stromal-vascular fractions were obtained from 6 weeks old male or newborn mice (postnatal days 5-10) for white and brown fat cultures, respectively. Inguinal fat tissue was dissected and washed with PBS, minced and digested for 45 min at 37° C. in PBS containing 10 mM CaCl2), 2.4 U/ml dispase II (Roche) and 10 mg/ml collagenase D (Roche). Brown fat tissue was dissected, washed with PBS, minced and digested for 45 min at 37° C. in PBS containing 1.3 mM CaCl2, 123 mM NaCl, 5 mM KCl, 5.0 mM glucose, 100 mM HEPES, 4% BSA and 1.5 mg/ml collagenase B (Roche). Digested tissue was filtered through a 100-μm cell strainer and centrifuged at 600 g for 10 min. […] For adenoviral overexpression of Slit2-FL, Slit2-N, Slit2-C, LacZ or Cre, virus was added at day 2 of differentiation at a titer of 10^8 particles/well and cells were analyzed at day 6-7. […]
as §1

lean mice = assay: Tissue gene expression after intravenous delivery of adenovirus to lean mice; assay type: in vivo, Mus musculus
Experimental: All animal experiments were approved by the Institutional Animal Care and Use Committee of the Beth Israel Deaconess Medical Center. Mice (Mus musculus) were obtained from Jackson Laboratories, maintained in 12 hour light-lark cycles (6 a.m.-6 p.m.) at 22° C., and fed a standard irradiated rodent chow diet or a high-fat diet (60% fat) for 12-20 weeks. AAV-8 viruses (Penn Vector Core) and adenoviruses (Vector Biolabs or constructed in-house) were injected at a titer of 10^11 or 10^10 per mouse, respectively. All experiments were done with male mice. The aP2-PRDM16 transgenic mice have been previously described in Seale et al. (2011) J. Clin. Invest. 121:96-105. PRDM16-floxed mice were crossed with adiponectin-Cre and were maintained on a pure C57BL/6 background (Cohen et al. (2014) Cell 156:304-316). The Slit2-floxed mice have been described previously in Rama et al. (2015) Nat. Med. 21:483-491. Lean C57BL/6 mice were obtained from Jackson Laboratories and were […].
RNA was extracted from cultured cells or frozen tissue samples using TRIzol®, purified with QIAGEN RNeasy® minicolumns. Normalized RNA was reversed transcribed using a high-capacity cDNA reverse transcription lot (Applied Biosystems) and cDNA was analyzed by qRT-CPR. Relative mRNA levels were calculated using the comparative CT method and normalized to cyclophilin […]. All primers used are listed with their sequences in Table 3 as follows: […]
Slit2 full-length (untagged and Myc-DDK tagged) expression plasmids and corresponding LacZ control plasmids in adenovirus was purchased from Vector Biolabs. To construct the Slit2-N and Slit2-C ENTR clones, PCR primers were designed to amplify the signal peptide, N-terminal, and C-terminal Slit2 from mouse cDNA (OriGene MR227608). To construct the Slit2-N and Slit2-C ENTR clone, the Slit2N gene was amplified from mouse Slit2 cDNA to create PCR fragments corresponding to Slit2-signal peptide and Slit2-N that were ligated into the pENTR1a dual selection vector. The Slit2-C PCR fragment was sub-cloned into the pENTR1a vector containing the signal peptide. The Slit2-N and Slit2-C expression clones in which the fragments are fused to a C-terminal V5 tag were generated by performing the LR reaction between pENTR/D-TOPO-Slit2N or pENTR/D-TOPO-Slit2-C and pAD/CMV/V5-DEST (Life Technologies). The expression construct was cut with Pac and transfected into HEK-293A cells to produce crude adenoviral stock. Amplified virus was purified and concentrated using the Vivapure® adenopack 100 (Sartorius Stedim Biotech) and buffer exchanged to 10 mM Tris-Cl at pH 8.0, 2 mM MgCl2, 4% w/v sucrose. Adenovirus titer was calculated using an Adeno-X™ Rapid Titer kit (Clontech). For primary adipocytes a concentration of 10^8 pfu/well was used and 10^10 pfu/mouse were used for in vivo experiments. Expression levels of Slit2-N and Slit2-C were confirmed after 48 hours post infection by Western blot analysis using a V5 antibody (Life Technologies). Expression of Slit2-N and Slit2-C was performed by amplification from mouse Slit2 cDNA and ligated into the pENTR dual selection vector with a signal peptide sequence.

[2] = system: receptor tyrosine kinases and intracellular kinases; assay: Phosphokinase array in primary inguinal cells; assay type: cell-based, Mus musculus; settings: Slit2-C vs lacZ adenovirus, primary inguinal adipocytes
Experimental: For Western blotting, homogenized tissues, whole cell lysates, or concentrated serum free conditioned medium were lysed in RIPA buffer containing protease inhibitor cocktail (Thermo Scientific) and phosphatase inhibitor cocktail (Thermo Scientific), separated by SDS-PAGE and transferred to Immobilon-P® membranes (Millipore). For Western blotting of plasma samples, 1 μl of plasma was prepared containing 2× sample buffer (Invitrogen) with reducing agent, boiled and analyzed using Western blot against V5, FLAG, or the indicated antibody. V5-antibody was from Life Technologies and anti-Flag M2-HRP (A8592) from Sigma Aldrich. Anti-Slit2 antibody used was from Abcam (Abcam ab134166). Phospho-PKA Substrate, phospho-PKC Substrate, phospho-ERK1/2, total ERK, phospho-AKT, total AKT, phospho-AMPK, total AMPK, phospho-ATGL, ATGL, phospho-EGFR and EGFR were from Cell Signaling. Protein array was from R&D Systems (Proteome Profiler Mouse Phospho-RTK Array Kit, ARY014). Silverstain (SilverQuest™ Silver Staining Kit, LC6070) was purchased from Thermo Fisher.

[3] = lean mice, Slit2-C adenovirus, FIG. 6D
[4] = i.v. Slit2 adenovirus vs LacZ, lean mice, day 7, FIG. 4E

Molecule	changes in thermogenic gene expression in white and brown adipocytes in culture ([1]; 2 h after purified protein treatment, FIG. 10N)	thermogenic gene expression in primary inguinal cells (primary inguinal cells; Slit2-C vs LacZ virus, day 7, FIG. 6A)	induction of Ucp1 mRNA in iWAT (lean mice; lean mice injected with Slit2-C adenovirus, FIG. 6C)	expression of mitochondrial genes (Atp5b, Uqcrb, Atp6vOa2, Atp9b, Cox5a) in BAT (lean mice; [3])	transcriptional regulators Prdm16, Nrf1, and Erra in classical brown fat (lean mice; [3])	phospho-EGFR and phospho-ERK1/2 (only two of 39 kinases tested) [2]	expression of other genes associated with thermogenesis, including Dio2 and Cidea ([1]; recombinant Slit2 protein 1 μg/ml, 24 hours, FIG. 3A)	increase in Ucp1 mRNA ([1]; recombinant Slit2 protein 1 μg/ml, 24 hours, fully differentiated primary inguinal adipocytes, FIG. 3A)	increase in Ucp1 mRNA (primary inguinal cells; adenovirus on day 2 of differentiation, analyzed day 7, vs lacZ, FIG. 3D)	vascular and neuronal markers in fat or skeletal muscle (lean mice; 7 days postinjection, FIGS. 12D-12F)	induction of PRDM16 in brown fat (lean mice; i.v. Slit2 adenovirus)	other thermogenic genes or UCP1 protein in brown fat (lean mice; i.v. Slit2 adenovirus)	induction of Ucp1 and Elovl3 in inguinal adipose tissue (lean mice; i.v. Slit2 adenovirus vs LacZ, day 7, FIG. 3F)	induction of Prdm16 in iWAT (lean mice; [4])	induction of Ucp1 in iWAT (lean mice; [4])	lipolysis or lipogenesis gene expression in the liver (lean mice; i.v. Slit2 adenovirus, FIG. 4A)	skeletal muscle gene expression of Glut1, Glut4 and Tnfa (lean mice; i.v. Slit2 adenovirus, FIG. 4B)	white fat selective genes, including Leptin and Resistin (lean mice; iWAT, i.v. Slit2 adenovirus, FIG. 4E)
B1	induced	comparable to full-length Slit2	3 fold	upregulation	significant changes	robust phosphorylation changes												
B2							large increases	~ 3 fold	8 fold	did not change	greater than 2 fold	without any changes	2 fold	1.5 fold	2.5 fold	No changes	no gene expression changes	strongly suppressed

— US12702694B2, “Methods for identification, assessment, prevention, and treatment of metabolic disorders using SLIT2” (Dana-Farber Cancer Institute, Inc., priority 2015, dated 2026)
